Changes are numbered by the printed parent chain. Names may count otherwise.

T1: ABI1 (Arabidopsis thaliana, UniProt P49597)
T1 construct: Full length ABI1 and ABI2 were cloned into a modified pSUMO vector; made in house; host or cells: E. coli BL21 (DE3) pLysS
T1 sequence (P49597 1-434): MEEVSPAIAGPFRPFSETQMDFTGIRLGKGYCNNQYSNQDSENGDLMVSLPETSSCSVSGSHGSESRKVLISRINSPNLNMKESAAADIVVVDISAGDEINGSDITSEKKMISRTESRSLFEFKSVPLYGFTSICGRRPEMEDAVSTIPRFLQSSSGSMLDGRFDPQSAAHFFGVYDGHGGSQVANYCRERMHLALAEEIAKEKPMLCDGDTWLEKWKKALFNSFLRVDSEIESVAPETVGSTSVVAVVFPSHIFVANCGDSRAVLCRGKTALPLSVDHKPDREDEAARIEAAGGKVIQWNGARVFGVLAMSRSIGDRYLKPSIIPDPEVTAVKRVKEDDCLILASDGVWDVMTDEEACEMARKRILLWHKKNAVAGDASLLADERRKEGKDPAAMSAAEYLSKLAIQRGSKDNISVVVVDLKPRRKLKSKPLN

T2: ABI2 (Arabidopsis thaliana, UniProt O04719)
T2 construct: Full length ABI1 and ABI2 were cloned into a modified pSUMO vector; made in house; host or cells: E. coli BL21 (DE3) pLysS
T2 sequence (O04719 1-423): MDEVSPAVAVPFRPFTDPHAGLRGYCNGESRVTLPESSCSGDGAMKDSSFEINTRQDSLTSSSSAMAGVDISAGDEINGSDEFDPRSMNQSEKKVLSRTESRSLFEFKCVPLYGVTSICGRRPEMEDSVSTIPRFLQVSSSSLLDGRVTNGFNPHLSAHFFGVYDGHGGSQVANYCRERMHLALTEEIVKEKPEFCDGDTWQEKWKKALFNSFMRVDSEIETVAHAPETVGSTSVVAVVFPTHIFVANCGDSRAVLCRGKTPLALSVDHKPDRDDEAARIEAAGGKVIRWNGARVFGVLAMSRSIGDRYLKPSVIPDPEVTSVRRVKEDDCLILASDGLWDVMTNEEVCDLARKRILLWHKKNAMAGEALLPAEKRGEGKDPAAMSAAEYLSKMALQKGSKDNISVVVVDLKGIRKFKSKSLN

B1: PYR1^CA3: PYR1 triple mutant (H60P, V83F, F159V) (protein)
chain: HHHHHHMPSELTPEERSELKNSIAEFHTYQLDPGSCSSLHAQRIHAPPELVWSIVRRFDKPQTYKPFIKSCSVEQNFEMRVGCTRDVIFISGLPANTSTERLDILDDERRVTGFSIIGGEHRLTNYKSVTTVHRFEKENRIWTVVLESYVVDMPEGNSEDDTRMVADTVVKLNLQKLATVAEAMARNSGDGSGSQVT
B2: PYR1^CA4: PYR1 quadruple mutant (H60P, V83F, F159V, M158I) (protein)
chain: B1 chain with M164I
B3: T162F: PYR1 receptor mutant with amino acid substitution T162F (protein)
chain: MPSELTPEERSELKNSIAEFHTYQLDPGSCSSLHAQRIHAPPELVWSIVRRFDKPQTYKHFIKSCSVEQNFEMRVGCTRDVIVISGLPANTSTERLDILDDERRVTGFSIIGGEHRLTNYKSVTTVHRFEKENRIWTVVLESYVVDMPEGNSEDDTRMFADFVVKLNLQKLATVAEAMARNSGDGSGSQVT
modifications: synthetic mutated PYR/PYL receptor polypeptide PYR1 T162F
B4: PYL2^CA4: PYL2 mutant (H65P, V87F, M1641, F165V) (protein)
chain: HHHHHHMSSSPAVKGLTDEEQKTLEPVIKTYHQFEPDPTTCTSLITQRIHAPASVVWPLIRRFDNPERYKPFVKRCRLISGDGDVGSVREVTFISGLPASTSTERLEFVDDDHRVLSFRVVGGEHRLKNYKSVTSVNEFLNQDSGKVYTVVLESYTVDIPEGNTEEDTKIVVDTVVKLNLQKLGVAATSAPMHDDE
B5: PYL9^CA4: PYL9 mutant (V85F, Y160I, F161V) (protein)
chain: HHHHHHMMDGVEGGTAMYGGLETVQYVRTHHQHLCRENQCTSALVKHIKAPLHLVWSLVRRFDQPQKYKPFVSRCTVIGDPEIGSLREVNFKSGLPATTSTERLELLDDEEHILGIKIIGGDHRLKNYSSILTVHPEIIEGRAGTMVIESFVVDVPQGNTKDETCIVVEALIRCNLKSLADVSERLASQDITQ

In one assay the test system is HAB1. Description: In vitro PP2C phosphatase (pNPP) receptor activation assay with HAB1. Format: biochemical, Arabidopsis. Particulars: 600 nM GST-HAB1, 0-4800 nM receptor, no ABA. The protocol:
Recombinant receptor proteins were produced as follows: Coding sequences were cloned into pET28 yielding 6×HIS (SEQ ID NO:173) fusions proteins and transformed into E. coli expression strain BL21. […]. Cells were stored at −80° C. before purification. After thawing, cells were sonicated on ice five times for 30 sec with 30 sec resting intervals. A cleared lysate was obtained after centrifugation at 12,000×g for 10 min and applied to 1 ml of Ni-NTA column (Qiagen) and washed with 20 column volumes of Buffer A containing 30 mM imidazole. Bound protein was eluted with 10 ml of Buffer A with 250 mM imidazole. The elutate was dialyzed against TBS. The purified recombinant proteins were then used together with recombinant phosphatases in receptor assays. In these assays, receptor activity is indicated by inhibition of phosphatase activity, as inferred from initial reaction velocities for GST-HAB1 mediated hydrolysis of the synthetic phosphatase substrate pNPP. Reactions contained 600 nM GST-HAB1 and either 0, 600, 1200, 2400 or 4800 nM 6×His-PYR1 or variants in a reaction buffer consisting of 33 mM Tris-OAc, pH 7.9, 66 mM KOAc, 0.1% BSA, 25 mM Mn(OAc)2, 50 mM pNPP. To infer the level of receptor activation with respect to fully activated wild type receptor, control reactions were also conducted using saturating levels of (+)-ABA (10 μM), and 600 nM wild type PYR1 and HAB1. Immediately after mixing proteins and substrates, reactions were monitored for hydrolysis of pNPP at A405 at ˜10 second intervals over 20 minutes using a Wallac plate reader. Reaction progressions were plotted, initial velocities calculated and converted to specific activities using a standard curve for 4-nitrophenol made in the same buffer system volumes/plate reader used for enzymatic reaction measurements. The values shown are expressed as %-control phosphatase activity levels as measured in the absence of receptor protein. The average specific activity level of GST-HAB1 utilized in our experiments was 4000 μmol/min/mg, when assayed on the phosphatase substrate pNPP in the absence of PYR1 or other receptors, as described using the methods above.
(§1) Full length ABI1 and ABI2 were cloned into a modified pSUMO vector (LifeSensors Inc, USA) vector yielding 6×His-SUMO fusion proteins; GST-HAB1 was expressed and purified as previously described (Park et al., 2009). Mutant receptors were cloned into pET28 yielding 6×His-fusion proteins. […]. The cultures were pre-incubated 2 hours at 30° C. and, for PP2C expression, media was supplemented with 4 mM MnCl2 one hour after inoculation. After pre-incubation, IPTG was added (1 mM) and cells were induced at 15° C. for 16 hours, after which they were collected by centrifugation, resuspended in 5 ml Buffer A (50 mM NaH2PO4, 300 mM NaCl) +10 mM imidazole, pH 8.0 and stored at −80° C. For purification, cells were thawed, sonicated on ice (60 seconds) and a cleared lysate was then applied a 1 ml-bed volume column of Ni-NTA (Qiagen, USA), washed with 20 column volumes of Buffer A+30 mM imidazole and bound protein eluted with 1 ml of Buffer A+250 mM imidazole. For receptors, the elutate was dialyzed against TBS and for PP2Cs, fusion proteins were desalted by passage over a Sephadex G50 column.
The purified receptors and phosphatases were then used in receptor assays where receptor activation is indicated by inhibition of phosphatase activity, as inferred from initial reaction velocities for PP2C-mediated hydrolysis of the synthetic phosphatase substrate pNPP in reactions containing 600 nM PP2C and either 0, 600, 1200, 2400 or 4800 nM receptor. The receptor assay buffer consisted of 33 mM Tris-OAc, pH 7.9, 66 mM KOAc, 0.1% BSA, 25 mM Mn(OAc)2, 0.1%13-ME and 50 mM pNPP. Immediately after mixing proteins and substrates, reactions were monitored for hydrolysis of pNPP at A405 at ˜2 minutes intervals using a Wallac plate reader. […]
Take B1: the “basal receptor activity (inhibition of HAB1 phosphatase activity in the absence of ABA)” value was “dramatically increased basal PYR1 activity”.

Take B2: the “basal receptor activity (inhibition of HAB1 phosphatase activity in the absence of ABA)” value is reported as “dramatically increased basal PYR1 activity”.

B3: the “basal receptor activity (inhibition of HAB1 phosphatase activity in the absence of ABA)” value is on record as “increase basal activity of receptors”.

Consider B4, for which the “basal receptor activity (inhibition of HAB1 phosphatase activity in the absence of ABA)” value is on record as “highly activated in the absence of ABA”.

B5: the “basal receptor activity (inhibition of HAB1 phosphatase activity in the absence of ABA)” value is on record as “highly activated in the absence of ABA”.

A further assay addresses T1, ABI1. Put plainly: In vitro PP2C phosphatase (pNPP) receptor activation assay with ABI1. Format: biochemical. Particulars: 600 nM PP2C, 0-4800 nM receptor, no ABA. The protocol:
as §1
(§2) The purified receptors and phosphatases were then used in receptor assays where receptor activation is indicated by inhibition of phosphatase activity, as inferred from initial reaction velocities for PP2C-mediated hydrolysis of the synthetic phosphatase substrate pNPP in reactions containing 600 nM PP2C and either 0, 600, 1200, 2400 or 4800 nM receptor. The receptor assay buffer consisted of 33 mM Tris-OAc, pH 7.9, 66 mM KOAc, 0.1% BSA, 25 mM Mn(OAc)2, 0.1%13-ME and 50 mM pNPP. Immediately after mixing proteins and substrates, reactions were monitored for hydrolysis of pNPP at A405 at ˜2 minutes intervals using a Wallac plate reader. Reaction progressions were plotted, initial velocities calculated and converted to specific activities by comparison to a standard curve for 4-nitrophenol made in the same buffer system. PP2C activity values shown in figures are expressed as %-control phosphatase activity levels, as measured under identical reaction conditions in the absence of receptor protein. The average specific activity level of GST-HAB1, 6×His-SUMO-ABI1 and 6×His-SUMO-ABI2 utilized in our experiments was 4500 (GST-PP2C) or 2500 (SUMO-PP2C) μmol/min/mg, when assayed using the phosphatase substrate pNPP in the absence of PYR1 or other receptors.
For B1, the “constitutive receptor activity on ABI1 in the absence of ABA” value (“constitutive receptor activity on ABI1” below) is “interact with ABI1 and ABI2”.

B2: the “constitutive receptor activity on ABI1” value is “interact with ABI1 and ABI2”.

As for B4, the “constitutive receptor activity on ABI1” value is “active towards multiple PP2Cs”.

For B5, the “constitutive receptor activity on ABI1” value is “active towards multiple PP2Cs”.

Another assay addresses T2, ABI2. Put plainly: In vitro PP2C phosphatase (pNPP) receptor activation assay with ABI2. In kind it is biochemical. Particulars: 600 nM PP2C, 0-4800 nM receptor, no ABA. The protocol: as §1, §2
Regarding B1, the “constitutive receptor activity on ABI2 in the absence of ABA” value (shortened to “constitutive receptor activity on ABI2”) is “interact with ABI1 and ABI2”.

For the molecule B2, the “constitutive receptor activity on ABI2” value is “interact with ABI1 and ABI2”.

With B4, the “constitutive receptor activity on ABI2” value was “active towards multiple PP2Cs”.

On to B5, for which the “constitutive receptor activity on ABI2” value is “active towards multiple PP2Cs”.

(Values after patent US10704056B2, “Constitutively active ABA receptor mutants” (The Regents of the University of California, priority 2011, dated 2020).)
